Measurements reported in patent US20190262327A1, “COMBINATION OF A BACE INHIBITOR AND AN ANTIBODY OR ANTIGEN-BINDING FRAGMENT FOR THE TREATMENT OF A DISORDER ASSOCIATED WITH THE ACCUMULATION OF AMYLOID BETA” (ASTRAZENECA AB, priority 2016, published 2019).

B1: Abet0343: optimized anti-Aβ1-42 clone from VH1:VH2:VL3 recombination library (protein)
scFv (part 1 of 2): EVQLLESGGGLVQPGGSLRLSCAASGFNFNHQVMWWVRQAPGKGLEWVSVIGKTNENIAYADSVKGRFTISRDNSKNTLYLQMNSLRAEDTAVYYCAREWMDHSRPYYYYGMDVWGQGTLVTVSS
scFv (part 2 of 2): QSVLTQPPSVSVSPGQTASITCSGHNLEDKFASWYQQKSGQSPVLVIYRDDKRPSGIPERFSASNSGHTATLTISGTQATDEADYYCSSQDTVTRVFGGGTKLTVL
modifications: left off: small tags and cut ends
notes: optimized anti-Aβ1-42 clone from VH1:VH2:VL3 recombination library
B2: Abet0383: optimized anti-Aβ1-42 clone derived from Abet0144-GL (protein)
scFv (part 1 of 2): EVQLLESGGGLVQPGGSLKLSCAASGFTFDWYPMWWVRQAPGKRLEWISVIGADNAKIAYADSVKGRFTISRDNSKNTLYLQMNSLRAEDTAVYYCAREWMGHSRPYYYYGMDVWGQGTPVTVSS
scFv (part 2 of 2): SYELTQPPSVSVSPGQTASITCSGHNLGDKFASWYQQKPGQSPVLVIYRDDKRPSGIPERFSASNSGHTATLTISGTQATDEADYYCSSQDTVTRVFGGGTKLTVL
modifications: left off: small tags and cut ends
notes: optimized anti-Aβ1-42 clone derived from Abet0144-GL
B3: Abet0373: optimized anti-Aβ1-42 clone derived from Abet0144-GL (protein)
scFv (part 1 of 2): EVQLLESGGGLVQPGGSLRLSCVASGFDFERSVMWWVRQAPGKRLEWVSVIGSGKTNITYADSVKGRFTISRDNSKNTLYLQMNSLRAEDTAVYYCAREWMDHSRPYYYYGMDVWGQGTLVTVSS
scFv (part 2 of 2): SYELTQPPSVSVSPGQTASITCSGHNLEDKFASWYQQKPGQSPVLVIYRDDKRPSEIPERFSASNSGHTATLTISGTQATDEADYYCSSQDTVTRVFGGGTKLTVL
modifications: left off: small tags and cut ends
notes: as for B2
B4: Abet0378: optimized anti-Aβ1-42 clone; amber stop codon at VL position 91 read as glutamine (protein)
scFv (part 1 of 2): EVQLLESGGGLVQPGGSLRLSCAASGFPFETDIMWWVRQAPGKGLEWVSVIGTNTDNVAYADSVKGRFTISRDNSKNTLYLQMNSLRAEDTAVYYCAREWMDHSRPYYYYGMDVWGQGTLVTVSS
scFv (part 2 of 2): SYELTQPPSVSVSPGQTASITCSGHNLEDKFASWYQQKPGQSPVLVIYRDDKRPSGIPERFSASNSGHTATLTISGTQATDEADYYCSSQDTVTRVFGGGTKLTVL
modifications: left off: small tags and cut ends
notes: optimized anti-Aβ1-42 clone; amber stop codon at VL position 91 read as glutamine
B5: Abet0379: optimized anti-Aβ1-42 clone derived from Abet0144-GL (protein)
scFv (part 1 of 2): EVQLLESGGGLVQPGGSLRLSCAASGFDFAETPLWWVRQAPGERLEWVSVIGSNQNKTAYADSVKGRFTISRDNSKDTLYLQMNSLRAEDTAVYYCAREWMDHSRPYYYYGMDVWGQGTLVTVSS
scFv (part 2 of 2): QSVLTQPPSVSVSPGQTASITCSGHNLEDKFASWYQQKSGQSPVLVIYRDDKRPSGIPERFSASNSGHTATLTISGTQATDGADYYCATQDNFTRVFGGGTKLTVL
modifications: left off: small tags and cut ends
notes: as for B2
B6: Abet0321b: optimized anti-Aβ1-42 clone derived from Abet0144-GL (protein)
scFv (part 1 of 2): EVQLLESGGGLVQPGGSLRLSCAASAYHSNHDPMWWVRQAPGKGLEWVSVIGSSGGTTAYADSVKGRFTISRDNSKNTLYLQMNSLRAEDTAVYYCAREWMDHSRPYYYYGMDVWGQGTLVTVSS
scFv (part 2 of 2): SYELTQPPSVSVSPGQTASITCSGHNLEDKFASWYQQKPGQSPVLIIYRDDKRPSGIPERFSASNSGHTATLTISGTQATDEADYYCSSQDTVTRVFGGGTKLTVL
modifications: left off: small tags and cut ends
notes: as for B2
B7: Abet0319: optimized anti-Aβ1-42 clone derived from Abet0144-GL (protein)
scFv (part 1 of 2): EVQLLESGGGLVQPGGSLRLSCAASVSVYNKDTMWWVRQAPGKGLEWVSVIGSSGGTTVYADSVKGRFTISRDNSKNTLYLQMNSLRAEDTAVYYCAREWMDHSRPYYYYGMDVWGQGTLVTVSS
scFv (part 2 of 2): SYELTQPPSVSVSPGQTASITCSGHNIMDKWVSWYQQKPGRSPALVIYRDDKRPSGIPERFSASNSGHTATLTISGTQATDEADYYCSSQDTVTRVFGGGTKLTVL
modifications: left off: small tags and cut ends
notes: as for B2
B8: Abet0381: optimized anti-Aβ1-42 clone derived from Abet0144-GL (protein)
scFv (part 1 of 2): EVQLLESGGGLVQPGGSLRLSCAASSPSFPRETMWWVRQAPGKGLEWVSVIGTQPNRLTYADSVKGRFTISRDNSKNTLYLQMNSLRAEDTAVYYCAREWMDHSRPYYYYGIDVWGQGTLVTVSP
scFv (part 2 of 2): SYELTQPPSVSASPGQTASITCSGHNLEDKFVSWYQQKPGQSPVLVIYRDDKRPSGIPERFSASNSGHTATLTISGTQATDEANYYCSSQDTVTRAFGGGTKLTVL
modifications: left off: small tags and cut ends
notes: as for B2
B9: Abet0370: optimized anti-Aβ1-42 clone derived from Abet0144-GL (protein)
scFv (part 1 of 2): EVQLLESGGGLVQPGGSLRLSCAASGFHFPMSAMWWVRQAPGKGLEWVSVIGETPERQAYADSVKGRFTISRDNSKSTLYLQMNSLRAEDTAVYYCAREWMDHSRPYYYYGMDVWGQGTLVTVSS
scFv (part 2 of 2): SYELTQPPSVSVSPGQTASITCTTPHFNSKFASWYQQKPGQSPVLVIYRDDKRPSGIPERFSASNSGHTATLTISGTQAMDEADYYCQAQDSTTRVFGGGTRLTVL
modifications: left off: small tags and cut ends
notes: as for B2
B10: Abet0374: optimized anti-Aβ1-42 clone derived from Abet0144-GL (protein)
scFv (part 1 of 2): EVQLLESGGGLVQPGGSLRLSCAASGFQFKDTPMWWVRQAPGKGLEWVSVIGDQNHKKAYADSVKGRFTISRDNSKNTLYLQMNSLRAEDTAVYYCAREWMDHSRPYYYYGMDAWGQGTLVTVSS
scFv (part 2 of 2): SYELTQPPSVSVTPGQTASITCSGHNLGGKFASWYQQKPGQSPVLVIYRDDKRPSGIPERFSASNFGHTATLTISGTQATDEADYYCSSQDTVTRVFGGGTKLTVL
modifications: left off: small tags and cut ends
notes: as for B2
B11: Abet0344: optimized anti-Aβ1-42 clone derived from Abet0144-GL (protein)
scFv (part 1 of 2): EVQLLESGGGLVQPGGSLSLSCAASGFTFSVYTMWWVRQAPGKGLEWVSVIGGNETRKAYADSVKGRFTISRDNSKNRLYLQMNSLRAEDTAVYYCAREWMDHSRPYYYYGMDVWGQGTLVTVSS
scFv (part 2 of 2): QSVLTQPPSVSVSPGQTASITCSGHNLEDKFASWYQQKSGQSPVLVIYRDDKRPSGIPERFSASNSGHTATLTISGTQATDEADYYCATQDNFTRVFGGGTKLTVL
modifications: left off: small tags and cut ends
notes: as for B2
B12: Abet0371: optimized anti-Aβ1-42 clone derived from Abet0144-GL (protein)
scFv (part 1 of 2): EVQLSESGGGLVQPGGSLRLSCAASHDAFPFDTMWWVRQAPGKGLEWVSVIGSSGGTTVYADSVKGRFTVSRDNSKNTLYLQMNSLRAEDTAVYYCAREWMDHSRPYYYYGMDVWGQGTLVTVSS
scFv (part 2 of 2): SYELTQPPSVSVSPGQTASITCSGHNISSSWVSWYQQKPGQSPVLVIYRDDKRPSGIPERFSASNSGHTATLTISGTQATDEADYYCSSQDTVTRVFGGGTKLTVL
modifications: left off: small tags and cut ends
notes: as for B2
B13: Abet0372: optimized anti-Aβ1-42 clone derived from Abet0144-GL (protein)
scFv (part 1 of 2): EVQLLESGGGLVQPGGSLRLSCAASSDMFNIETMWWVRQAPGKGLEWVSVIGKGMNNVSYADSVKGRFTISRDNSKNTLYLQMNSLRAEDTAVYYCAREWMDHSRPYYYYGMDVWGQGTLVTVSS
scFv (part 2 of 2): SYELTQPPSVSVSPGQTASITCSGHNLEDKFASWYQQKPGQSPVLVIYRDDKRPSGIPERFSASNSGHTATLTISGTQATDEADYYCSSQDTVTRVFGGGTKLTVL
modifications: left off: small tags and cut ends
notes: as for B2
B14: Abet0368: optimized anti-Aβ1-42 clone derived from Abet0144-GL (protein)
scFv (part 1 of 2): EVQLLESGGGLVQPGGSLRLSCAASGFDFGPSPMWWVRQAPGKGLEWVSVIGKDTQNSTYADSVKGRFTISRDNSKDTLYLQMNSLKAEDTAVYYCAREWMDHSRPYYYYGMDVWGQGTLVTVSS
scFv (part 2 of 2): SYELTQPPSVSVSPGQTASITCSGHNLEDKFTSWYQQKSGQSPVLVIYRDDKRPSGIPERFSASNSGHTATLTISGAQATDEADYYCSSQDTVTRVFGGGTKLTVL
modifications: left off: small tags and cut ends
notes: as for B2

Molecular target: T1, human Amyloid beta 1-42 peptide (Homo sapiens, UniProt P05067)
T1 construct: biotinylated human Amyloid beta 1-42 peptide (rpeptide, USA; cat: A1117); purchased rPeptide, USA A1117; host or cells: synthetic peptide
Assay: Surface Plasmon Resonance kinetic profiling of purified scFv (ProteOn)
Assay type: binding
Conditions: biotinylated human Amyloid beta 1-42 on streptavidin chip
Source text: Surface Plasmon Resonance was used to analyse the purified scFv clones that had shown significant improvement in binding affinity for human Amyloid beta 1-42 peptide over the parent sequence, Abet0144-GL, in the HTRF™ epitope competition assay (sections 1.3-1.6). Briefly, the ProteOn Protein Interaction Array System (BioRad, USA) was used to assess the kinetic parameters of the interaction between each purified scFv and synthetically produced human Amyloid beta 1-42 peptide. These experiments were performed essentially as described by Karlsson et al. (Karlsson et al., 1991).
The affinity of binding between each test scFv and human Amyloid beta 1-42 was estimated using assays in which biotinylated synthetic human Amyloid beta 1-42 peptide (rPeptide, USA; cat: Al 117) was non-covalently bound via a biotin/streptavidin interaction to a proprietary streptavidin chip (NTA 176-5021) at five different surface densities. The chip surface was regenerated between cycles by a single 60 second injection of 10 mM Glycine pH 2.0 to remove scFv bound to the peptide.
Each scFv at 100-200 nM was sequentially passed over the peptide surface for a sufficient amount of time to observe sensorgrams that could be fitted to an appropriate binding model with confidence. An irrelevant scFv blank was subtracted from the main dataset to reduce the impact of any buffer artefacts or non-specific binding effects. An appropriate binding model was then fitted to the data.

T1 sequence (P05067 672-713): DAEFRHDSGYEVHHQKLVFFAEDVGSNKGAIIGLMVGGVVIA

Molecule	ka [M⁻¹ s⁻¹]	kd [s⁻¹]
B1	120000	2.25e-05
B2	181000	3.94e-05
B3	185000	8.92e-05
B4	136000	6.41e-05
B5	134000	4.39e-05
B6	150000	3.33e-05
B7	329000	0.000129
B8	213000	5.14e-05
B9	119000	7.76e-05
B10	256000	6.04e-05
B11	77500	5.73e-05
B12	357000	0.000272
B13	243000	0.000176
B14	187000	9e-05
